Laboratory results as given in doi:10.1101/2021.08.28.458007v1.

System: O=C1O[C@H]([C@@H](O)CO)C(=O)C1=O
Experiment: purified protein
Settings: co-substrate GSH, 50 mM phosphate pH 6.8, 0.2 mM EDTA

Substance	Km	kcat [min⁻¹]
HsCLIC1 (Homo sapiens)	2753 (±939.5) μM	0.325
HsCLIC1 (Homo sapiens; K13A)	4121 (±858.6) μM	0.012
HsCLIC3 (Homo sapiens)	310.2 (±140.2) μM	0.118
HsCLIC4 (Homo sapiens)	495.1 (±316.6) μM	0.133
